± gives the standard deviation.
Assay: protein stability index of a GFP-peptide fusion (GPS, HEK-293T) (PSI 1-6); higher = more stable
Conditions: c terminus: a fixed tail appended
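Further: 24-mer peptide tiles fused after GFP, lentivirally expressed, FACS-sorted into six equal bins by GFP/DsRed ratio, decoded by Illumina sequencing, PSI is the read-weighted mean bin number.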

Row | Sequence | protein stability index (treatment: DMSO) | protein stability index (treatment: MLN4924 1 uM, 8 h)
1 | NLRATDVRLMRQLLVINESIESIK [LURAP1L] | 2.41 ± 0.16 | 2.58 ± 0.35
2 | SLCVLVSTVGKLCRLINEDVNEQV [CEP70] | 3.25 ± 0.48 | 2.96 ± 0.21
3 | QTGEWQNIAIMTEEPELSPAYLIS [GFOD1] | 3.05 ± 0.17 | 3.25 ± 0.22
4 | SSFFFSGVFVGVISFGQLSDRFGR [SLC22A15] | 2.96 ± 0.94 | 3.021 ± 0.018
5 | FEREPSTSDLGTTDVQKKKLVDAI [RIPK4] | 4.62 ± 0.084 | 4.87 ± 0.29
6 | EPFPSSDDSPRSALAAATAAAAAA [SPAG8] | 5.2 ± 0.16 | 5.05 ± 0.18
7 | NTLRSQLGDRLNVEVDTAPTVDLN [KRT34] | 4.84 ± 0.18 | 4.84 ± 0.15
8 | CEERWLVIDRKVYNISEFTRRHPG [FADS1] | 2.1 ± 0.3 | 2.15 ± 0.33
9 | LHKQTASDLLDEKEIAKNLIQPIN [FEM1C] | 3.38 ± 0.22 | 3.89 ± 0.18
10 | YTGMFTSSPDLDDMKLIILANRLC [RHOBTB2] | 2.73 ± 0.51 | 2.7 ± 0.51
11 | QGEAFQRALESELQQLRARLQGLE [PBXIP1] | 3.1 ± 0.17 | 3.23 ± 0.28
12 | VKETGYFFIYGQVLYTDKTYAMGH [TNFSF13B] | 2.86 ± 1.5 | 2.41 ± 0.86
13 | PPENSDSGTGKKEKEKKNRKGKDK [EIF5] | 5.58 ± 0.21 | 5.48 ± 0.28
14 | NYLIFSQKPEFQDLSVEERSFVEK [RHOBTB3] | 3.61 ± 0.16 | 3.69 ± 0.27
15 | MDLSERQEVSSVRSLSSTGSLPSH [DLC1] | 4.61 ± 0.25 | 4.47 ± 0.29
16 | KERALSAPWLSLFPPEGNMEDKEM [ZNF263] | 4.82 ± 0.057 | 4.72 ± 0.18
17 | EDYSAEYIIQQGGWGTVFSLESEE [BCL2L13] | 4.17 ± 0.29 | 3.96 ± 0.46
18 | MVRFKHRYLLCELVSDDPRCRLSL [POP5] | 2.56 ± 0.38 | 2.55 ± 0.58
19 | QYWLDGKIIAVGVIDILPNCVSSV [ATE1] | 2.93 ± 0.54 | 2.95 ± 0.66
20 | RTARALLDRDALKQSLVVAVQDHG [PCDHGA10] | 3.72 ± 0.18 | 3.87 ± 0.34
21 | KQLEPLVAPLADGKVAVGQDDLTV [VPS39] | 5.14 ± 0.27 | 5.18 ± 0.21
22 | LKEELAYLKKNHEEEMNALRGQVG [KRT17] | 4.01 ± 0.36 | 4.05 ± 0.66
23 | SSSSGVLMVGPNFRVGKKIGCGNF [CSNK1G3] | 2.71 ± 0.38 | 2.71 ± 0.21

Row | Sequence | protein stability index (treatment: DMSO) | protein stability index (treatment: MLN4924 1 uM, 8 h)
24 | MATSRYEPVAEIGVGAYGTVYKAR [CDK4] | 3.2 ± 0.094 | 3.2 ± 0.24
25 | WLNKEKGIFKIEDSAQVARLWGIR [SPDEF] | 2.63 ± 0.32 | 2.35 ± 0.17
26 | MQVLGPEDLQSIIYKLEEHEEFFP [CEP70] | 2.99 ± 0.53 | 3.41 ± 0.39
27 | DAGEGIQCSQRMLSFSDALLSIIA [TMEM175] | 2.25 ± 0.091 | 2.35 ± 0.3
28 | NRRSSRETREYAPPSRGHGYRDYG [RBMY1A1] | 4.27 ± 0.24 | 4.09 ± 0.23
29 | YAIKRSKKPLAGSVDEQNALREVY [WEE1] | 3.3 ± 0.32 | 3.16 ± 0.25
30 | VRKKRFRKTQKKVPDVKEMEKSSF [TAF7L] | 4.1 ± 0.11 | 4.37 ± 0.19
31 | EDLQDGDVRMGGSFRGAFSNSEKA [NET1] | 4.98 ± 0.63 | 5.252 ± 0.051
32 | SDHEMREEEKLKAEEIRIKGKYNI [KCNK9] | 5.11 ± 0.21 | 5.22 ± 0.3
33 | TLPLTLIVILENIAVAWIYGTKKF [SLC6A17] | 3.03 ± 0.34 | 3.35 ± 0.43
34 | TSIQWKNHDQNNHNTDRSSHKDSM [EDNRA] | 5.05 ± 0.12 | 5.14 ± 0.2
35 | GEESSKAKEVTIAKADTTSTVTPV [EHMT1] | 5.55 ± 0.27 | 5.45 ± 0.078
36 | THADMDGKRTPRGRRGWKKFYAVL [PSD2] | 2.65 ± 0.15 | 2.9 ± 0.11
37 | GGRKGRTLLLQGHHDKVQSLCYLQ [WDFY1] | 2.54 ± 0.095 | 2.73 ± 0.32
38 | PEEKIWEELSVLEVFEGREDSIFG [MAGEA6] | 4.23 ± 0.29 | 4.17 ± 0.39
39 | STRPEEGCSLHEEDTQRHETYHQQ [TCAP] | 5.47 ± 0.21 | 5.47 ± 0.2
40 | ATTISTSEDGSYGTDVTRCICGFT [KMT2E] | 3.46 ± 0.21 | 3.6 ± 0.39
41 | IGDVHLAPFTDEQLYMEQFTKANF [CARM1] | 3 ± 0.2 | 3.03 ± 0.36
42 | LDYTADEDGVWYSVAPMNVRRGLA [KLHL12] | 2.41 ± 0.81 | 2.99 ± 0.47
43 | ASEEGSESEGSESSGRSCRNERSI [SMG5] | 5.54 ± 0.3 | 5.45 ± 0.31
44 | ATFVDKKRDLLGALKYWKKAMNMR [FEM1C] | 1.95 ± 0.17 | 2.13 ± 0.46
45 | HNGDMEKILLDAQHESGQSSSRGS [BNIP3L] | 5.18 ± 0.17 | 5.32 ± 0.3
46 | LIILASGGPQALVNIMRTYTYEKL [CTNNB1] | 3.04 ± 0.21 | 3.35 ± 0.76

Row | Sequence | protein stability index (treatment: DMSO) | protein stability index (treatment: MLN4924 1 uM, 8 h)
47 | ELAYMKKNHEEEMKEFSNQVVGQV [KRT13] | 4.7 ± 0.26 | 4.66 ± 0.14
48 | PDSMFLAMLAVVSCASIGSGEPPT [CDK11A] | 2.74 ± 0.15 | 3.222 ± 0.003
49 | STHQEAENEKDRADQTVLTEDEKK [CHGB] | 5.35 ± 0.48 | 5.83 ± 0.091
50 | GKGEARARLKRSQSFGVASASSIK [SMTNL2] | 4.6 ± 0.43 | 4.61 ± 0.38
51 | YNALKLFMEMNQKLFDDCTQQFKA [PPP2R5C] | 2.46 ± 0.22 | 2.2 ± 0.24
52 | PMKKNNNLYSWDDFMELGRSIPDT [ACSBG2] | 3.74 ± 0.24 | 3.77 ± 0.3
53 | EDSILGDPKKLLTQHFVQENYLEY [MAGEA3] | 3.75 ± 0.36 | 3.79 ± 0.28
54 | LIFGLITCLTGVLGVGLGVEISRR [SPNS1] | 2.66 ± 0.23 | 3.13 ± 0.46
55 | TLDKCGICQGDGSSCTHVTGNYRK [ADAMTSL2] | 4.91 ± 0.35 | 4.97 ± 0.33
56 | MVLAPVFGYLGDRYNRKYLMCGGI [SPNS1] | 2.61 ± 0.058 | 2.5 ± 0.84
57 | RQILHLITMMALKVLGELNILPNT [TENT5D] | 3.42 ± 0.64 | 2.81 ± 0.1
58 | CHICHKKLYTGPGLAIHCMQVHKE [ZNF207] | 3.07 ± 0.27 | 3.25 ± 0.39
59 | MASDTPESLMALCTDFCLRNLDGT [ZER1] | 3.88 ± 0.14 | 3.43 ± 0.41
60 | ETREYAPPSRGHGYRDYGHSRRHE [RBMY1A1] | 4.58 ± 0.35 | 4.71 ± 0.13
61 | VVIDKHPVRFFVHKRPHVDFFLEV [CTDNEP1] | 2.22 ± 1.1 | 3.06 ± 0.87
62 | GRAGAVGTPGERGPPGPPGPPGPP [EMID1] | 4.6 ± 0.44 | 4.68 ± 0.22
63 | VEPGTPPLDILAQPLEASNPALEG [DNAAF3] | 5.35 ± 0.14 | 5.36 ± 0.21
64 | VEKIRKLPNTLLRKDKDVARLQDF [ANKRD40] | 2.93 ± 0.22 | 3.02 ± 0.28
65 | TLEQILEHLDNLRLNLTNTKQNFF [INTS3] | 2.23 ± 0.54 | 2.31 ± 0.11
66 | SVAVAARHAQTISGHALRILIVDW [HDAC6] | 2.82 ± 0.73 | 2.62 ± 0.63
67 | TPPETKPDPPVNFLRQKVLSLPLP [PCMTD2] | 3.74 ± 0.24 | 3.85 ± 0.22
68 | DPEEAIRHDVIVSIVTAAKKDILL [PDS5B] | 2.3 ± 0.15 | 2.54 ± 0.3
69 | AAAEFSSLLRRIKGKLFTWNILKT [SLC35F2] | 3.05 ± 0.56 | 2.94 ± 0.28

Row | Sequence | protein stability index (treatment: DMSO) | protein stability index (treatment: MLN4924 1 uM, 8 h)
70 | RPGPQSVPLQLSAHWQCGATLTQV [FCHO1] | 2.21 ± 0.23 | 2.43 ± 0.2
71 | YVFFVLAVMEHAESKMYATSPYSD [PTPRD] | 3.02 ± 0.82 | 3.28 ± 0.78
72 | NAMTCEGCKGFFRRSMKRKALFTC [VDR] | 2.38 ± 0.36 | 2.22 ± 0.6
73 | GIHPLSSSEVDELIHKADEVTLSE [PALM] | 5.35 ± 0.2 | 5.23 ± 0.12
74 | DEDDSEELEEDDGHGAEQAAAFPT [EHMT1] | 5.58 ± 0.27 | 5.7 ± 0.29
75 | SLGSALKPGEGRSALFAGNEWRRP [TRIM29] | 3.46 ± 0.26 | 3.31 ± 0.21
76 | KLMKILQPQDVDLALDSGASLLHL [RIPK4] | 2.11 ± 0.12 | 2.52 ± 0.21
77 | IAAAVYIMDTVGNIWVCYASYVVF [SLC19A2] | 2.89 ± 0.13 | 2.87 ± 0.27
78 | IEREHLIQLRRWQETRGELQCRSP [TBC1D10A] | 3.88 ± 0.2 | 3.82 ± 0.24
79 | PDTMEKLRTHIDAIILALPEDLQG [DENND6A] | 3.02 ± 0.5 | 3.02 ± 0.23
80 | TRGIAKIISAHIHPVCSLCWSRDG [RBBP5] | 2.45 ± 0.44 | 2.04 ± 0.19
81 | QYSVEGGKETLTPSELRDLVTQQL [S100A14] | 4.59 ± 0.23 | 4.55 ± 0.13
82 | NSFGLRFGKREAAPGNHGRSAGRG [KISS1] | 4.44 ± 0.4 | 4.4 ± 0.46
83 | LGLSRAQPVQSKPQKASAPAADPP [PDLIM7] | 4.71 ± 0.16 | 4.86 ± 0.37
84 | LMVDFAQERQMLQALKFLPVPSAP [FSD1] | 2.21 ± 0.081 | 2.22 ± 0.3
85 | KVQFNLQFTKPNASLGDVQSGATI [SASS6] | 2.45 ± 0.37 | 2.66 ± 0.45
86 | PEWDTVTPEAKDLINKMLTINPSK [CAMK2A] | 4.886 ± 0.036 | 5.03 ± 0.12
87 | LMMCFILPTLVPWYFWGETFQNSV [SCD] | 2.94 ± 0.69 | 3.24 ± 0.075
88 | TSVFQKKLCTAHMCSTLEHNCAHF [MATN2] | 2.47 ± 0.22 | 2.8 ± 0.34
89 | QVESRWGYSGTSDRIRFTVNRRIS [BTBD1] | 3.38 ± 0.23 | 3.53 ± 0.37

From the supplement of paper PMC10567573
